Residue numbers refer to the chain shown, from its start. Some results are limits rather than exact numbers.

The target in assay [1] is T1, CTLA4-Fc (UniProt P16410 36-161, limits assumed).
T1 sequence (looked up): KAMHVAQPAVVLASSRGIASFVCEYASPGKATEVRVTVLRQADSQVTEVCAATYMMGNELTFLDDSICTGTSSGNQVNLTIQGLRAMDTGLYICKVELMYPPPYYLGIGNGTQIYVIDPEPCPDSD
Kind of assay: cell-based or functional assay.

The target of another assay is T2, cyno Macaque CTLA-4 (cyno Macaque, UniProt G7PL88 36-161).
T2 construct: ELISA antigen; construct not described; also called CynoCTLA-4; cyno CTLA-4
T2 sequence: T1 sequence (looked up) with S14N, I18T, L106M
Kind of assay: ELISA, cyno CTLA-4 binding.

Assay [2] deals with T3, human CTLA-4 (human, UniProt P16410 36-161, limits assumed).
T3 construct: also called HuCTLA-4; human cytotoxic T lymphocyte antigen-4
T3 sequence: T1 sequence (looked up)
Kind of assay: ELISA, human CTLA-4 binding. For orientation: In an ELISA, binding on a coated surface is turned into a signal by an enzyme label.

The target in a further assay is T4, murine CTLA-4 (murine, UniProt P09793 36-161, limits assumed).
T4 construct: ELISA antigen; construct not described; also called mouse CTLA-4
Kind of assay: ELISA, murine CTLA-4 binding assay.

Assay [3] deals with T3, human CTLA-4. The assay is described as follows: ligand blocking assay with purified proteins; competitor CD86.
Assay [4] addresses T3, human CTLA-4. Kind of assay: ratio of the IC50 for blocking CD80 to the IC50 for blocking CD86 on CTLA-4.
Assay [5] deals with T3, human CTLA-4. Kind of assay: ligand blocking assay with purified proteins; competitor CD80; CD80 as competing ligand, purified proteins.
The target of assay [6] is T3, human CTLA-4. The assay is described as follows: ligand blocking assay with purified proteins; competitor CD80.
Assay [7] has as its target T1, CTLA4-Fc. Kind of assay: SPR Biacore T200, CTLA4-Fc amine-coupled, antibody as analyte. Here is the method: (§1) Antigen CTLA4-Fc was immobilized on the sensor chip through amine coupling method. Antibody was used as the analyte. The data of dissociation (kd) and association (kₐ) rate constants were obtained using Biacore T200 evaluation software. The apparent equilibrium dissociation constants (KD) were calculated from the ratio of kd over kₐ.
In general terms: SPR reads the build-up and loss of mass on a sensor chip optically.

Assay [8] addresses T1, CTLA4-Fc. The assay is described as follows: SPR Biacore T200, CTLA4-Fc amine-coupled, antibody as analyte; apparent KD. Here is the method:
as §1

The target of assay [9] is T5, CTLA4-his (UniProt P16410 36-161, limits assumed).
T5 construct: construct not described; also called Ag CTLA4-his; Antigen CTLA4-his; not shown: his tag
T5 sequence (looked up): T1 sequence (looked up)
Kind of assay: SPR Biacore 8k, purified antibody captured on chip, CTLA4-his as analyte (as the text says; same values as Table 5).

In assay [10] the target is T5, CTLA4-his. The assay is described as follows: SPR Biacore 8k, purified antibody captured on chip, CTLA4-his as analyte. Here is the method: (§2) The affinities of purified antibody binding to CTLA4-his was determined using a Surface Plasmon Resonance (SPR) biosensor, Biacore 8k. Antibodies were immobilized on the sensor chip through capture method. Antigen CTLA4-his was used as the analyte. The data of dissociation (kd) and association (ka) rate constants were obtained using Biacore 8k evaluation software. The equilibrium dissociation constants (KD) were calculated from the ratio of kd over ka.

Assay [11] concerns the target T5, CTLA4-his. Kind of assay: SPR Biacore T200, antibody from supernatant captured by anti-human Fc, CTLA4-his injected. How it is done: (§3) Affinity ranking of the fifteen humanized antibodies was determined using a Surface Plasmon Resonance (SPR) biosensor, Biacore T200 (GE Healthcare). Anti-human Fc gamma specific antibody was immobilized onto the sensor chip using amine coupling method. […] After equilibration, Ag CTLA4-his was injected for 300 seconds (association phase) followed by the injection of running buffer for 600s (dissociation phase). Responses of reference flow cell (flow cell 1) were subtracted from those of humanized antibodies flow cells during each cycle. The surface was regenerated before the injection of other humanized antibodies. The process was repeated until all antibodies are analyzed. The off-rates of humanized antibodies were obtained from fitting the experimental data locally to 1:1 interaction model using the Biacore 8K evaluation software. The antibodies were ranked by their dissociation rate constants (off-rates, kd).

Assay [12] deals with T5, CTLA4-his. The assay is described as follows: SPR Biacore 8k, purified antibody captured on chip, CTLA4-his as analyte; purified antibody, Biacore 8k. Here is the method: as §2
Assay [13] deals with T1, CTLA4-Fc. Kind of assay: cell-based or functional assay. This is another data set of the same source.
The target in assay [14] is T5, CTLA4-his. The assay is described as follows: SPR Biacore T200, antibody from supernatant captured by anti-human Fc, CTLA4-his injected; supernatant antibody, off-rate ranking, 600 s dissociation. How it is done:
as §3

B1: MAb A1 (16A9E9) (antibody, V domains shown)
VH: DVQLQESGPGLVKPSQSLSLTCSVTGDSITSGYYWNWIRQFPGNKLEWMGYISYDGINNYYPSLENRISITRDTSRNQFFLKLNSVTTEDTATYYCAREVVTPGVEVPAWYFDVWGTGTTVTVSS
VL: DIVLTQSPTSLTVSLGQRAIISCKASQSVSFAGTGLMHWYQQKPGQQPKLLIYRASNLEAGVPTRFSGSGSRTDFTLNIHPVEEDDAATYYCQQSREYPWTFGGGTTLEIN
notes: also called murine antibody A1
As a reminder, the EC50 is the concentration giving half of the maximal effect. Low values mean a more potent agent, high ones a less potent agent. What is called IC50 is the concentration at which inhibition is half-maximal. B1: the “IC50 (nM), IL-2 secreted by Jurkat cells co-cultured with CHO/CD80 cells, Experiment 1” value (“IC50 (nM), IL-2 secreted … Experiment 1” below) in the assay with CTLA4-Fc [1] is 19.3 nM. In addition, the “IC50 (nM), IL-2 secreted by Jurkat cells co-cultured with CHO/CD80 cells, Experiment 2” value (“IC50 (nM), IL-2 secreted … Experiment 2” for short) with CTLA4-Fc [1] was 18.5 nM. The values for the EC50 with cyno Macaque CTLA-4 and with human CTLA-4 [2] were 0.01 nM and 0.058 nM, respectively. Also, the binding result in the assay with murine CTLA-4 was “no binding”. For the same molecule, the IC50 in the assay with human CTLA-4 [3] is 0.365 nM; with human CTLA-4 [5], 2.37 nM. Besides, in the assay with human CTLA-4 [4], the “CD80/CD86 Blocking Ratio” value is 6.49.

B2: MAb A4 (13F10D7) (antibody, V domains shown)
VH: EVQLRQSGPELVKPGTSVKISCKASGYKFTDHFINWVKQNHGKSLEWIGDINPNNGGTNSNQKFEGKATLTVDKSSSTAYMELRSLTSEDSAVYYCARLRREYFYAMDYWGQGTSVTVSS
VL: DIVMTQAAFSNPVTLGTSASISCRSSKSLLHSNGITYLYWYLQKPGQSPQLLIYQMSNLASGVPDRFSSSGSGTDFTLRISRVEAEDVGVYYCAQNLELPLTFGAGTKLELK
notes: also called Murine MAb A4; murine antibody A4
One may read the koff as the rate constant with which the complex falls apart. Lower therefore signals slow dissociation. Usually kon stands for a measure of how fast the partners come together. Read a low kon as slow association. With B2, in the assay with CTLA4-Fc [1], the “IC50 (nM), IL-2 secreted … Experiment 1” value was found to be 11 nM. Besides, the “IC50 (nM), IL-2 secreted … Experiment 2” value in the assay with CTLA4-Fc [1] turned out to be 13.2 nM. Moreover, the EC50 turned out to be 0.024 nM with cyno Macaque CTLA-4 and 0.034 nM in the assay with human CTLA-4 [2]. In addition, the binding result with murine CTLA-4 is listed as “no binding”. The IC50 was determined as 0.579 nM in the assay with human CTLA-4 [6] and 0.287 nM with human CTLA-4 [3]. Moreover, the off-rate constant (koff) with CTLA4-Fc [7] and in the assay with CTLA4-his [9] was 0.000551 s⁻¹ throughout. Also, the association rate constant (kon) with CTLA4-Fc [7] and with CTLA4-his [9] was 573000 M⁻¹ s⁻¹ throughout. The Kd with CTLA4-Fc [8] and in the assay with CTLA4-his [9] was 0.963 nM each time. Also, in the assay with human CTLA-4 [4], the “CD80/CD86 Blocking Ratio” value worked out at 2.01.

B3: chimeric IgG (antibody, V domains shown)
VH: B2 VH
VL: DIVMTQAAFSNPVTLGTSASISCRSSKSLLHSNGITYLYWYLQKPGQSPQLLIYQMSNLASGVPDRFSSSGSGTDFTLRISRVEAEDVGVYYCAQNLELPLTFGAGTKLELKR
notes: Variable domains of MAb A4 on human IgG1 and kappa, expressed in HEK293; also called murine-human chimeric antibody derived from murine antibody A4
On to B3, for which the koff with CTLA4-Fc [7] was 5.09e-05 s⁻¹; with CTLA4-his [11] it was 2.59e-05 s⁻¹; in the assay with CTLA4-his [12], ≤ 1e-05 s⁻¹. The figures for the kon with CTLA4-Fc [7], with CTLA4-his [10] and with CTLA4-his [11] were 621000 M⁻¹ s⁻¹, 765000 M⁻¹ s⁻¹ and 430000 M⁻¹ s⁻¹, respectively. Further, the Kd with CTLA4-his [10] was 0.0131 nM; with CTLA4-Fc [8], 0.082 nM; in the assay with CTLA4-his [11], 0.0602 nM.

B4: MAb A3 (32G12D2) (antibody, V domains shown)
VH: QVQLQQPGAELVRPGSSVKLSCKASGYTFTSYWMHWVKQRPIQGLEWIGNIDPSDSETHYNQNFKDKATLTVDKSSSTAYLQLSSLTSEDSAVYYCARRYTSSSFDYWGQGTTLTVSS
VL: DIQMTQTTSSLSASLGDRVTVSCRASQDIRNYLNWYQQKPDGTVKLLIYFTSKLHSGVPSRFSGSGSGTDYFLAISNLEQEDIATYFCQQGNTLPYTFGGGTKLEIK
notes: also called murine antibody A3
B4: the “IC50 (nM), IL-2 secreted … Experiment 1” value with CTLA4-Fc [1] worked out at 22.7 nM. Besides, the “IC50 (nM), IL-2 secreted … Experiment 2” value with CTLA4-Fc [1] came out at 14.9 nM. Further, the 50% effective concentration (EC50) came to 0.054 nM with cyno Macaque CTLA-4 and 0.026 nM with human CTLA-4 [2]. The binding result with murine CTLA-4 is “no binding”. For the same molecule, the IC50 with human CTLA-4 [6] was determined as 0.822 nM; in the assay with human CTLA-4 [3], 0.369 nM. Moreover, in the assay with human CTLA-4 [4], the “CD80/CD86 Blocking Ratio” value amounted to 2.23.

B5: Humanized Ab 11 (VH4 + VL2) (antibody, human IgG1, kappa)
heavy: not shown
light: DIVMTQSPLSLPVTPGEPASISCRSSKSLLHSNGITYLYWYLQKPGQSPQLLIYQMSNLASGVPDRFSSSGSGTDFTLKISRVEAEDVGVYYCAQNLELPLTFGGGTKVEIKRTVAAPSVFIFPPSDEQLKSGTASVVCLLNNFYPREAKVQWKVDNALQSGNSQESVTEQDSKDSTYSLSSTLTLSKADYEKHKVYACEVTHQGLSSPVTKSFNRGEC
notes: Humanized IgG1 derived from MAb A4
Take B5: the “IC50 (nM), Jurkat cell activation assay of Example 2 (IL-2)” value (from here on “IC50 (nM), Jurkat cell activation assay”) in the assay with CTLA4-Fc [13] is 8.7 nM. In the assay with CTLA4-his [10], this molecule yielded a Kd of 0.339 nM, a koff of 0.000307 s⁻¹ and a kon of 904000 M⁻¹ s⁻¹. Moreover, in the assay with CTLA4-his [11], the Kd stood at 0.684 nM, the koff came out at 0.000305 s⁻¹ and the kon was found to be 446000 M⁻¹ s⁻¹.

B6: Humanized Ab 15 (VH7 + VL3) (antibody, human IgG1, kappa, V domains shown)
VH: QVQLVQSGAEVVKPGASVKISCKASGYKFTDHFINWVKQNPGQGLEWIGDINPNNGGTNSNQKFEGKATLTVDKSISTAYMELRRLRSDDTAVYYCARLRREYFYAMDYWGQGTLVTVSS
VL: B3 VL with A7S, A8P, F9L, N11L, L15P, T17E, S18P, R79K, A105G, L111I
notes: as for B5
On to B6, for which, in the assay with CTLA4-Fc [13], the “IC50 (nM), Jurkat cell activation assay” value turned out to be 3.1 nM. In the assay with CTLA4-his [10], this molecule registered a Kd of 0.0142 nM, a koff of 1.03e-05 s⁻¹ and a kon of 727000 M⁻¹ s⁻¹. Further, in the assay with CTLA4-his [11], the Kd was ≤ 0.0472 nM and the kon came to 212000 M⁻¹ s⁻¹. Also, the koff with CTLA4-his [14] was ≤ 1e-05 s⁻¹.

B7: Humanized Ab 14 (VH6 + VL3) (antibody, human IgG1, kappa, V domains shown)
VH: B6 VH with V12K, I20V, N40A
VL: B3 VL with A7S, A8P, F9L, N11L, L15P, T17E, S18P, R79K, A105G, L111I
notes: as for B5
As for B7, the “IC50 (nM), Jurkat cell activation assay” value in the assay with CTLA4-Fc [13] is 3.1 nM. In the assay with CTLA4-his [10], this molecule returned a Kd of 0.0248 nM, a koff of 1.99e-05 s⁻¹ and a kon of 802000 M⁻¹ s⁻¹. Besides, in the assay with CTLA4-his [11], the Kd was ≤ 0.0452 nM, the koff was ≤ 1e-05 s⁻¹ and the kon was 221000 M⁻¹ s⁻¹.

The values are drawn from patent publication US20200055937A1 (REMD BIOTHERAPEUTICS, published 2020).
